Laboratory results: patent US10766952B2, “Methods for reducing migraine frequency in a subject in need thereof” (Beth Israel Deaconess Medical Center, Inc., priority 2017, dated 2020)

Experiments:
[1] = tested on: naïve wide-dynamic range (WDR) trigeminovascular neurons; test: Single-unit recording of naïve central trigeminovascular neurons, WDR neurons; format: in vivo, rat; settings: 30 mg/kg IV
Text: Experiments were approved by the Beth Israel Deaconess Medical Center and Harvard Medical School standing committees on animal care, and in accordance with the U.S. National Institutes of Health Guide for the Care and Use of Laboratory Animals. Male and female Sprague-Dawley rats (250-350 g) were anesthetized with urethane (0.9-1.2 g/kg i.p.). They were fitted with an intra-tracheal tube to allow artificial ventilation (0.1 L/min of (O2), and an intra-femoral-vein cannula for later infusion of drugs. Rats were placed in a stereotaxic apparatus, and core temperature was kept at 37° C. using a heating blanket. End-tidal […] was continuously monitored and kept within physiological range (3.5-4.5 pCO2). Once stabilized, rats were paralyzed with rocuronium bromide (10 mg/ml, 1 ml/hr continuous intravenous infusion) and ventilated. For stimulation of the cranial dura later in the experiment, a 5×5-mm opening was carefully carved in the parietal and occipital bones in front and behind the lambda suture, directly above the left transverse sinus. The exposed dura was kept moist using a modified synthetic interstitial fluid (135 mM NaCl, 5 mM KCl, 1 mM MgCl2, 5 mM CaCl2, 10 mM glucose and 10 mM Hepes, pH 7.2). […]
To record neuronal activity, a tungsten microelectrode (impedance 3-4 MΩ) was lowered repeatedly into the spinal trigeminal nucleus (STN) in search of central trigeminovascular neurons receiving convergent input from the dura and facial skin. […] Responses to mechanical stimulation of the skin were determined by applying brief (10 s) innocuous and noxious stimuli to the most sensitive portion of the cutaneous receptive field. […] Real-time waveform discriminator was used to create and store a template for the action potential evoked in the neuron under study by electrical pulses on the dura; spikes of activity matching the template waveform were acquired and analyzed online and offline using Spike 2 software (CED, Cambridge, UK). […]

[2] = tested on: central trigeminovascular neurons in the medullary dorsal horn; test: Activation of central trigeminovascular neurons by picrotoxin-induced seizure; format: in vivo, rat; settings: 30 mg/kg intravenously four hours before induction of seizure
Text: Cortical electrodes were used to trace the magnitude, extent and progression of epileptiform seizures.
Surgical preparation and single-unit recording. Single-unit recordings were obtained from neurons in the trigeminal ganglion and dorsal horn as described in previous studies (Burstein et al. (1998) J. Neurophysiol. 79: 964-82; Strassman and Levy (2006) J. Neurophysiol. 95: 1298-306; Strassman et al. (1996) Nature 384: 560-4; Zhang et al. (2010) J. Neurosci. 30: 8807-14; and Zhang et al. (2011) Ann. Neurol. 69: 855-65). Experiments were done in adult Sprague-Dawley rats (250 g to 350 g). Animals were anesthetized with urethane (1.2-1.5 g/kg), artificially ventilated with oxygen, and paralyzed. Body temperature was controlled, and end-tidal CO2 and oxygen saturation was monitored. For ganglion recordings, four separate craniotomies were made: over the contralateral cortex, to advance the microelectrode; over the ipsilateral parietal cortex, and the ipsilateral occipital cortex, for application of the picrotoxin and recording of electrocorticogram activity; and over the ipsilateral transverse sinus, for electrical and mechanical stimulation of dural afferents, and lidocaine application. For dorsal horn recording, the same craniotomies were made over the ipsilateral cortex and the ipsilateral transverse sinus, but no contralateral craniotomy was made. Instead, a laminectomy was made to expose the upper cervical spinal cord (C1-2) for microelectrode recording. In both the trigeminal ganglion and the dorsal horn recording experiments, the search stimulus for finding dura-sensitive neurons is single-shock electrical stimulation applied to the dura covering the transverse sinus.
Seizure induction and electrocorticogram recording. […] For verification of seizure induction, cortical activity was recorded with a glass micropipette (0.9% saline, ˜1 megohm, 7 μm tip) placed just below the surface of the cerebral cortex, at the parietal and the occipital site. […]

B1: fremanezumab (antibody)
heavy: EVQLVESGGGLVQPGGSLRLSCAASGFTFSNYWISWVRQAPGKGLEWVAEIRSESDASATHYAEAVKGRFTISRDNAKNSLYLQMNSLRAEDTAVYYCLAYFDYGLAIQNYWGQGTLVTVSSASTKGPSVFPLAPCSRSTSESTAALGCLVKDYFPEPVTVSWNSGALTSGVHTFPAVLQSSGLYSLSSVVTVPSSNFGTQTYTCNVDHKPSNTKVDKTVERKCCVECPPCPAPPVAGPSVFLFPPKPKDTLMISRTPEVTCVVVDVSHEDPEVQFNWYVDGVEVHNAKTKPREEQFNSTFRVVSVLTVVHQDWLNGKEYKCKVSNKGLPSSIEKTISKTKGQPREPQVYTLPPSREEMTKNQVSLTCLVKGFYPSDIAVEWESNGQPENNYKTTPPMLDSDGSFFLYSKLTVDKSRWQQGNVFSCSVMHEALHNHYTQKSLSLSPGK
light: EIVLTQSPATLSLSPGERATLSCKASKRVTTYVSWYQQKPGQAPRLLIYGASNRYLGIPARFSGSGSGTDFTLTISSLEPEDFAVYYCSQSYNYPYTFGQGTKLEIKRTVAAPSVFIFPPSDEQLKSGTASVVCLLNNFYPREAKVQWKVDNALQSGNSQESVTEQDSKDSTYSLSSTLTLSKADYEKHKVYACEVTHQGLSSPVTKSFNRGEC
notes: humanized anti-CGRP antagonist antibody, vectors ATCC PTA-6867 and PTA-6866
spontaneous activity of WDR neurons ([1]; female rats): did not reduce the spontaneous activity
sensitivity of WDR neurons to mechanical stimulation of the dura ([1]; male and female rats): not the WDR neurons
responses of WDR neurons to innocuous (brush, pressure) or noxious (pinch) mechanical stimulation of the skin or the cornea ([1]; male or female rats): did not alter the responses
neurons activated by the seizure [2]: 15%
neurons activated by the seizure (activated/tested) [2]: 2/13
activation of central trigeminovascular neuron by seizure ([2]; FIG. 24): prevented the activation of a central trigeminovascular neuron
